The values below come from patent US20090280480A1.

The target of test [1] is T1, NM, the N-terminal and middle region of Saccharomyces cerevisiae Sup35 (soluble, unpolymerized) (Saccharomyces cerevisiae), P05453.
T1 chain: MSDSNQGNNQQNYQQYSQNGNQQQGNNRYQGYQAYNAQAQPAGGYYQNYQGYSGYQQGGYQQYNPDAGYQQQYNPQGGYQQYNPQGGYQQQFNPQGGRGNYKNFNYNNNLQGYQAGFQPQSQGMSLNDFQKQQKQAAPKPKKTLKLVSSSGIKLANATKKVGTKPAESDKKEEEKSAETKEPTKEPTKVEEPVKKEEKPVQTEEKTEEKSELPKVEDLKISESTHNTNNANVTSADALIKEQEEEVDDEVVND
Description: quaternary structure analysis of soluble NM; method not named. Conditions: remark: other sources report otherwise.

Test [2] concerns the target T1, NM, the N-terminal and middle region of …. The experiment in a line: Microcon YM-100 (100 kDa cut off) filtration of fibrillization reactions. Conditions: remark: other sources report otherwise.

B1: NM, the N-terminal and middle region of Saccharomyces cerevisiae Sup35 (soluble, unpolymerized), P05453 1-253 (protein)
chain: MSDSNQGNNQQNYQQYSQNGNQQQGNNRYQGYQAYNAQAQPAGGYYQNYQGYSGYQQGGYQQYNPDAGYQQQYNPQGGYQQYNPQGGYQQQFNPQGGRGNYKNFNYNNNLQGYQAGFQPQSQGMSLNDFQKQQKQAAPKPKKTLKLVSSSGIKLANATKKVGTKPAESDKKEEEKSAETKEPTKEPTKVEEPVKKEEKPVQTEEKTEEKSELPKVEDLKISESTHNTNNANVTSADALIKEQEEEVDDEVVND
In test [1], B1 showed a percent monomeric after dilution out of denaturant of 87%. The molecule further came in with a percent of total NM in an oligomeric state in test [2] of 10%.
